Laboratory results taken from the supplement of paper PMC10126150.
± gives the standard deviation of the averaged measurements.

system: ATP; test: switch fluorescence ratio, 500 uM ATP over buffer (Cy3 cluster intensity, sum of 5 cycles each) (fold (ratio)); higher = stronger signal-on switching upon ATP binding; sequences stand for … in TCGTCGGCAGCGTCAGATGTGTATAAGAGACAGTTTTTTTTTTTTTTTTTTTTTTTTT…TC; conditions: aptamer strand: ATP DNA aptamer (quencher-CACCTGGGGGAGTATTGCGGAGGAAGG + anchor), 100 nM annealed; ATP concentration: 500 uM
Method in brief: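 Clusters with intensities outside 100-1000 RFU were excluded. The remaining Cy3-labelled switching-strand clusters on a modified Illumina MiSeq flow-cell had been annealed to 100 nM quencher-labelled ATP aptamer and imaged in selection buffer, then after 15 min with 500 uM ATP at 22 °C, for five cycles separated by NaOH stripping and re-annealing. The fluorescence ratio, averaged per switch-domain sequence, is each cluster's summed target-cycle Cy3 intensity over its summed buffer-cycle Cy3 intensity.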
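Further: ATP exposure 15 min at 22 °C before imaging.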

Row | Sequence | switch fluorescence ratio
1 | GTCCAGGGGA | 1.04 ± 0.1
2 | GTCCATAGGT | 1.02 ± 0.013
3 | GTCCGCCTTG | 1.07 ± 0.011
4 | GTCCGGCAAT | 2.04 ± 0.33
5 | GTCCGGGGTC | 0.972 ± 0.065
6 | GTCCTTTCTG | 0.988 ± 0.014
7 | GTCGAAACAT | 1.04 ± 0.075
8 | GTCGAAGGTG | 1.11 ± 0.03
9 | GTCGATATTT | 1.01 ± 0.026
10 | GTCGGACGGA | 0.971 ± 0.042
11 | GTCGGATGTG | 0.954 ± 0.044
12 | GTCGGGGATA | 1 ± 0.049
13 | GTCGGGGGGG | 0.999 ± 0.031
14 | GTCGGGGGTT | 1.02 ± 0.049
15 | GTCGGTCTGG | 1 ± 0.098
16 | GTCGTAAGTT | 1.01 ± 0.024
17 | GTCGTAGGGA | 0.973 ± 0.013
18 | GTCGTCAAGT | 1.006 ± 0.0073
19 | GTCGTTGCTA | 1.01 ± 0.015
20 | GTCTAATAGT | 1.03 ± 0.015
21 | GTCTACTGCT | 1.07 ± 0.028
22 | GTCTGAAGGG | 1.0152 ± 0.0004
23 | GTCTGGGCGA | 1.01 ± 0.033
24 | GTCTTTTACG | 1.005 ± 0.0013
25 | GTCTTTTTAA | 1.03 ± 0.032

Row | Sequence | switch fluorescence ratio
26 | GTGAAAGGCA | 1.004 ± 0.005
27 | GTGAAAGGGC | 1.01 ± 0.034
28 | GTGAAATTTT | 1.01 ± 0.039
29 | GTGAAGAAGA | 0.991 ± 0.0048
30 | GTGAAGGGGT | 1 ± 0.047
31 | GTGAAGTATT | 0.983 ± 0.033
32 | GTGACCAGAA | 0.983 ± 0.025
33 | GTGACCGCCC | 1.49 ± 0.39
34 | GTGACTTAGT | 1.03 ± 0.02
35 | GTGACTTCAA | 1.027 ± 0.0059
36 | GTGAGAAAGG | 0.982 ± 0.015
37 | GTGAGAATGT | 1.02 ± 0.02
38 | GTGAGAATTT | 1.05 ± 0.075
39 | GTGAGAGGTG | 1.05 ± 0.052
40 | GTGAGCTCAT | 1.01 ± 0.04
41 | GTGAGGACAA | 1.05 ± 0.036
42 | GTGAGGCGGA | 1.07 ± 0.087
43 | GTGAGGGGTT | 0.971 ± 0.044
44 | GTGAGTAAGG | 0.9778 ± 0.00085
45 | GTGAGTACTT | 1.03 ± 0.014
46 | GTGAGTCGGG | 0.987 ± 0.02
47 | GTGAGTTTTT | 1.02 ± 0.022
48 | GTGATAAGAA | 1.009 ± 0.0057
49 | GTGATAATGT | 0.981 ± 0.027
50 | GTGATACGGG | 1.04 ± 0.021

Row | Sequence | switch fluorescence ratio
51 | GTGATAGTAA | 1.006 ± 0.0099
52 | GTGATATCGG | 1.05 ± 0.034
53 | GTGATCCTTC | 1.03 ± 0.034
54 | GTGATCTAGG | 1.04 ± 0.033
55 | GTGATGAGCG | 0.979 ± 0.037
56 | GTGATTAATC | 1.01 ± 0.075
57 | GTGATTGACT | 1.03 ± 0.025
58 | GTGATTGAGT | 0.9707 ± 0.0089
59 | GTGCACGTTG | 1.01 ± 0.019
60 | GTGCATGTGG | 0.9701 ± 0.0056
61 | GTGCGGAGAA | 0.986 ± 0.035
62 | GTGCTAACGG | 0.9633 ± 0.0069
63 | GTGCTAGGGT | 0.988 ± 0.02
64 | GTGCTGAATG | 1.02 ± 0.016
65 | GTGCTGGATT | 1.02 ± 0.018
66 | GTGCTGGTGG | 0.9839 ± 0.0043
67 | GTGCTGGTTT | 1.05 ± 0.14
68 | GTGCTTACGA | 1.068 ± 0.01
69 | GTGGAAGGCG | 0.975 ± 0.03
70 | GTGGAAGGGC | 1.03 ± 0.079
71 | GTGGACTTAA | 0.9953 ± 0.0046
72 | GTGGACTTTG | 0.971 ± 0.053
73 | GTGGAGGGGC | 0.958 ± 0.081
74 | GTGGATAAGA | 1.0003 ± 1.9e-06
75 | GTGGATCAAA | 1.02 ± 0.049

Row | Sequence | switch fluorescence ratio
76 | GTGGATTTTT | 0.991 ± 0.015
77 | GTGGCACCTA | 0.988 ± 0.018
78 | GTGGCAGACC | 1.01 ± 0.012
79 | GTGGCAGGCA | 0.984 ± 0.033
80 | GTGGCATGTT | 0.9788 ± 0.0038
81 | GTGGCCATGC | 1.01 ± 0.025
82 | GTGGCCTGGA | 1.01 ± 0.025
83 | GTGGCGCTTT | 0.976 ± 0.023
84 | GTGGCGTAGG | 0.981 ± 0.021
85 | GTGGCTAACG | 0.972 ± 0.06
86 | GTGGCTGGGT | 0.981 ± 0.015
87 | GTGGGAATAT | 1.001 ± 0.0083
88 | GTGGGACAGC | 1.02 ± 0.052
89 | GTGGGACAGG | 1.01 ± 0.015
90 | GTGGGAGGAG | 0.985 ± 0.031
91 | GTGGGAGTTT | 1.01 ± 0.043
92 | GTGGGATAAA | 0.969 ± 0.011
93 | GTGGGATCTG | 0.9894 ± 0.008
94 | GTGGGCGGCC | 0.99 ± 0.028
95 | GTGGGCGGGA | 1.07 ± 0.14
96 | GTGGGCGGGC | 1.02 ± 0.093
97 | GTGGGGACGG | 0.977 ± 0.053
98 | GTGGGGAGGG | 1 ± 0.016
99 | GTGGGGAGTG | 1.01 ± 0.045
100 | GTGGGGATCC | 1.025 ± 0.0046

Row | Sequence | switch fluorescence ratio
101 | GTGGGGCGCG | 1.02 ± 0.038
102 | GTGGGGGAGA | 0.9868 ± 0.0059
103 | GTGGGGGATG | 1 ± 0.033
104 | GTGGGGGG | 0.999 ± 0.029
105 | GTGGGGGTGT | 1.05 ± 0.055
106 | GTGGGGGTTG | 0.976 ± 0.043
107 | GTGGGGTAGA | 1.05 ± 0.021
108 | GTGGGGTCAA | 0.9985 ± 0.0085
109 | GTGGGGTCGC | 0.978 ± 0.012
110 | GTGGGGTTTC | 0.977 ± 0.032
111 | GTGGGTAATT | 0.995 ± 0.033
112 | GTGGGTAGAG | 1 ± 0.057
113 | GTGGGTAGTG | 0.996 ± 0.038
114 | GTGGGTAGTT | 0.99 ± 0.076
115 | GTGGGTATAC | 1.01 ± 0.026
116 | GTGGGTCGTT | 1 ± 0.031
117 | GTGGGTGGTG | 1.015 ± 0.0046
118 | GTGGGTTCGG | 1 ± 0.031
119 | GTGGGTTTTT | 1.01 ± 0.032
120 | GTGGTAATTG | 0.972 ± 0.016
121 | GTGGTAGAGC | 0.991 ± 0.033
122 | GTGGTATCAC | 1 ± 0.011
123 | GTGGTCGGGT | 0.974 ± 0.044
124 | GTGGTCTGCC | 0.958 ± 0.0044
125 | GTGGTGCCAA | 1.01 ± 0.026

Row | Sequence | switch fluorescence ratio
126 | GTGGTGGGGG | 0.992 ± 0.034
127 | GTGGTGTACT | 0.985 ± 0.0081
128 | GTGGTTCCAA | 0.9932 ± 0.0063
129 | GTGGTTCTTG | 0.99 ± 0.019
130 | GTGGTTGTGC | 0.97 ± 0.035
131 | GTGGTTTAAC | 1.04 ± 0.0087
132 | GTGGTTTGCT | 1.01 ± 0.013
133 | GTGGTTTGGA | 0.989 ± 0.031
134 | GTGGTTTGGG | 0.988 ± 0.06
135 | GTGGTTTTGG | 1 ± 0.035
136 | GTGTAAAAGC | 1.03 ± 0.011
137 | GTGTAAATTT | 0.991 ± 0.04
138 | GTGTAAGGGG | 0.9943 ± 0.0094
139 | GTGTAAGTGT | 0.9821 ± 0.0046
140 | GTGTAATTAG | 0.982 ± 0.035
141 | GTGTACTGGG | 0.993 ± 0.017
142 | GTGTACTTAC | 1.2 ± 0.022
143 | GTGTATCACG | 1.015 ± 0.0048
144 | GTGTATTTTG | 0.996 ± 0.014
145 | GTGTCAAAGA | 0.984 ± 0.02
146 | GTGTCTAGTA | 1 ± 0.02
147 | GTGTCTGGGA | 0.985 ± 0.024
148 | GTGTCTTTGA | 0.986 ± 0.055
149 | GTGTGACGGT | 0.949 ± 0.019
150 | GTGTGAGCGG | 0.9901 ± 0.0052

Row | Sequence | switch fluorescence ratio
151 | GTGTGAGGTT | 0.989 ± 0.019
152 | GTGTGAGTGC | 1.06 ± 0.024
153 | GTGTGATGTT | 0.99 ± 0.042
154 | GTGTGCACGC | 1.05 ± 0.065
155 | GTGTGCAGTG | 0.954 ± 0.01
156 | GTGTGGAAGA | 1.019 ± 0.0054
157 | GTGTGGGAGG | 1.04 ± 0.028
158 | GTGTGGGAGT | 0.9963 ± 0.0016
159 | GTGTGGGATC | 1.013 ± 0.0039
160 | GTGTGGGCAG | 0.973 ± 0.0026
161 | GTGTGGGGCC | 0.973 ± 0.012
162 | GTGTGGGGGA | 1.02 ± 0.04
163 | GTGTGGGTAT | 0.985 ± 0.016
164 | GTGTTAGACT | 0.9618 ± 0.0092
165 | GTGTTAGTCC | 1.05 ± 0.11
166 | GTGTTATAAT | 0.986 ± 0.021
167 | GTGTTATATA | 0.986 ± 0.013
168 | GTGTTATCAC | 0.984 ± 0.054
169 | GTGTTATCGC | 1.011 ± 0.0015
170 | GTGTTATGAT | 0.9574 ± 0.0068
171 | GTGTTATGCA | 1.01 ± 0.021
172 | GTGTTGAGAA | 0.98 ± 0.015
173 | GTGTTGATTT | 0.9625 ± 0.0065
174 | GTGTTGGACC | 0.9782 ± 0.00099
175 | GTGTTGGGTG | 1.01 ± 0.011

Row | Sequence | switch fluorescence ratio
176 | GTGTTGTATT | 0.988 ± 0.015
177 | GTGTTTATGG | 0.984 ± 0.011
178 | GTGTTTGAAA | 0.998 ± 0.027
179 | GTGTTTGGAA | 0.993 ± 0.012
180 | GTGTTTGGCG | 0.9981 ± 0.0051
181 | GTGTTTTATA | 0.977 ± 0.026
182 | GTGTTTTGTC | 1.02 ± 0.068
183 | GTTAAAAAAA | 0.958 ± 0.021
184 | GTTAAAAAGG | 0.998 ± 0.022
185 | GTTAAATTAG | 0.9875 ± 0.0056
186 | GTTAAATTCA | 1 ± 0.024
187 | GTTAACGGAC | 1.17 ± 0.098
188 | GTTAACTCGG | 0.985 ± 0.047
189 | GTTAACTCTG | 0.9801 ± 0.0084
190 | GTTAAGGGCC | 0.99 ± 0.011
191 | GTTAATATAG | 0.992 ± 0.035
192 | GTTAATTATT | 1.06 ± 0.085
193 | GTTAATTTGC | 0.984 ± 0.04
194 | GTTAATTTTT | 1.01 ± 0.043
195 | GTTACAAGAC | 1.21 ± 0.048
196 | GTTACCCAGT | 1.049 ± 0.0098
197 | GTTACCGGAC | 1.5 ± 0.034
198 | GTTACCGTTT | 1.02 ± 0.053
199 | GTTACTGCGG | 0.98 ± 0.021
200 | GTTAGCGCTT | 0.974 ± 0.025
